Assay: label from the status in PepcDB records

**Q.** With “MSELITYHAEDGIATLTLNNGKVNAISPDVITAFNAALDRATEERAVVIITGQPGILSGGYDLKVMTRGPQEAISLVTAGSTLARRLLSHPFPVVVACPGNAVAKGAFLLLSADYRIGVEGPYKVCLNEVQIGMTMHHAGIELARDRLRRSAFHRSVINAEVFDPQGAVDAGFLDKVVPAEQLQEAAMTAARELKKLN” as the sequence, how does the protein production read?
**A.** The protein production was “failed”.

**Q.** For “MSENNSNREPQKDVGKGNNSLMRWVGRLVLFAIILAITSFLTPGFSIRGFWTFVLASVVITGLDYLVESFMKVDASPFGKGLKGFIISAVIIYLAQFLVPNMRVSIIGAILASLVIGVIDAIIPSRSM”, which protein production is on record?
**A.** The protein production was “failed”.

**Q.** For “MSENQDELLHYRLSLRLGPVHARQRLGIERETEARVFGRDKRSFHLENLTNAPKLIRFCLKAVGLLRRAQANSLKLTTEHNTFVLPDLPSAFEGFRILHLTDLHVDMDEANLQAVIRQIAPLDYDLCVLTGDYRQRTWGPVDDALDGMARLRLAIHGDAYAVLGNHDSVRMVPALEDMGYRLLMNEMVPLERGDSRLYLAGVDDAHYYKVHNLHRAGDDIPAGGISLLLSHTPEIWREAAHAGYDLFLCGHTHGGQLCLPGGIPLTLDSDCPRRLGRGLWQVNGMQGYTSPGAGTSVLNVRLNCPPEVTIHTLTRGPLEHHHHHH”, which protein production is on record?
**A.** The protein production was “failed”.

**Q.** Which protein production does the source give for “MSEPFSVPVTVRGYETDTQGHLNQSVYLNYAEHARWSLLQAAGIRQADLVARGVGPVALETTIRFQRELLAGDEVTVTCAFEWGTGKTFRIRQLVTKADGTVAAEIEAVGGLMDLGERRLVPDPRQRFKELAARPELFGLLEHHHHHH” here?
**A.** Its protein production is “failed”.

**Q.** With “MSEPIDILIAGAGIGGLSCALALHQAGIGKVTLLESSSEIRPLGVGINIQPAAVEALAELGLGPALAATAIPTHELRYIDQSGATVWSEPRGVEAGNAYPQYSIHRGELQMILLAAVRERLGQQAVRTGLGVERIEERDGRVLIGARDGHGKPQALGADVLVGADGIHSAVRAHLHPDQRPLSHGGITMWRGVTEFDRFLDGKTMIVANDEHWSRLVAYPISARHAAEGKSLVNWVCMVPSAAVGQLDNEADWNRDGRLEDVLPFFADWDLGWFDIRDLLTRNQLILQYPMVDRDPLPHWGRGRITLLGDAAHLMYPMGANGASQAILDGIELAAALARNADVAAALREYEEARRPTANKIILANREREKEEWAAASRPKTEKSAALEAITGSYRNQVERPRLEHHHHHH” as the sequence, how does the protein production read?
**A.** The protein production was “not failed”.

**Q.** Which protein production does the source give for “MSEQKEDLFKPVGEAAAEVEDESIAEQNKANDGVKLTGAQDAMGHPVQEIESLCMNCGKNGTTRLLLTSIPYFREIIIMSFDCPHCGFKNCEIQPASQIQEKGSRYVLKVECREDFNRQVIKSETATCKFVELDIEIPAKRGQLTTVEGLLSEMIDDLSQDQEMRKSIDEALYKKIDDFIQKVKSYINCEPNTIPITFILDDPAGNSWIEYKPGEPQHKWSHTQYVRTDEQNVQVGIITRDQLEQRRQEQLKQLANRERNPSESVKVGSANPQFLSDATDIENFNNEVQTFRASCPSCTQECETHMKPVNIPHFKEVIIMSTVCDHCGYKSNEVKTGGAIPDKGRRITLYCDDAADLSRDILKSETCSMVIPELHLDIQEGTLGGRFTTLEGLLRQVYEELESRIFTQTSDSMDEATKARWVEFFAKLKEAIAGKVKFTVIMEDPLAGSYIQNVYAPDPDPNMTIEDYERTKEQNEDLGLSDIKVE” here?
**A.** Its protein production is “failed”.

**Q.** For “MSERNLPLEYHPFPAILPKSATVAMLGTFPPTSEKRCMEFHYPNFQNDMWRIMGLLFYKNLDHFRVDQEKRFDPVRIEAFLREKGIALCSSAQTAIRLKGNASDKDLKIIDAIDMQALLTELPQLKWLFTTGGLATETLLSLLPEKSKLPKTNEWINYPYTTDRTLYLYRLPSTSRAYPLSLAKKVEAYRQFFVRVGVL”, which protein production is on record?
**A.** Its protein production is “failed”.

**Q.** For “MSETATWQPSASIPNLLKRAAIMAEIRRFFADRGVLEVETPCMSQATVTDIHLFPFETRFVGPGHSQGINLYLMTSPEYHMKRLLAAGCGPVFQLCRSFRNEEMGRHHNPEFTMLEWYRPHYDMYRLMNEVDDLLQQVLDCQPAESLSYQQAFQRHLEIDPLSADKTQLREAAAKLDLSNIADTEEDRDTLLQLLFTMGVEPHIGKEKPTFIYHFPASQASLAQISTEDHRVAERFEVYYKGIELANGFHELTDAREQQQRFEQDNRKRAARGLPQQPIDQNLLDALAAGLPDCSGVALGVDRLVMLALGAESLADVIAFTVDRA”, which protein production is on record?
**A.** The protein production was “not failed”.

**Q.** For “MSFASETKKELTHMDVSDSDAKVELAAFIRMNGAISFSNQLVIMDVQTENAAIARRMYQLLKDLYEVPIELLVRRKMKLKKNNVYIVRLKSGTRGILEDLRILEPPMTFTKSIDRGFVKKRSAKRAYLRGAFLASGSVNNPETSSYHLEIFSVYEEHNEAICALMNQFDLNARTLERKNGFITYLKEAEKITEFLSIIGATSALLHFEDVRIMRDMRNSVNRLVNCETANLNKTINAAVRQIDNIKYIQSTVGLEALPERLREIAALRIANEDVTLKELGEMLTTGQVSKSGINHRLRKLDQIAERLRSGETPAQVGLKVSNS”, which protein production is on record?
**A.** Its protein production is “failed”.

**Q.** With “MSFEEFTPLNEKSLVDYIKSTPALSSKIGADKSDDDLVIKEVGDGNLNFVFIVVGSSGSLVIKQALPYIRCIGESWPMTKERAYFEATTLRKHGNLSPDHVPEVYHFDRTMALIGMRYLEPPHIILRKGLIAGIEYPFLADHMSDYMAKTLFFTSLLYHDTTEHRRAVTEFCGNVELCRLTEQVVFSDPYRVSTFNRWTSPYLDDDAKAVREDSALKLEIAELKSMFCERAQALIHGDLHTGSVMVTQDSTQVIDPEFSFYGPMGFDIGAYLGNLILAFFAQDGHATQENDRKEYKQWILRTIEQTWNLFNKRFIALWDQNKDGPGEAYLADIYNNTEVLKFVQENYMRNLLHDSLGFGAAKMIRRIVGVAHVEDFESIEEDKRRAICERSALEFAKMLLKERRKFKSIGEVVSAIQQQS” as the sequence, how does the protein production read?
**A.** The protein production was “failed”.

**Q.** Which protein production does the source give for “MSGDAATDADAGRAGPGGVFGVGFRSLLRREILRFVRRPRNTFAPPAITNVLYFAVFGVILGQRIDDIAGFDYIVFLLPGLVVLGAISNAFENASFSIFHGRWNEYIHETLTAPLSYSSMVLAYVFAAALRGIIVGLIIVAVGLVFTTVPVNEPLYLAAFMVVVPLLFASLGVIGGLVAEDFDDLTVMNQFILRPLVFFGAVFYSLEILPPLYRTLSLLNPMVYMVNGVRYGFLGYQEVDPLASLAVLSGLTAAVIVLDIYLFKRGYGLID” here?
**A.** The protein production was “failed”.

**Q.** With “MSGFDLIIFDCDGVLVDSEIIAAQVESRLLTEAGYPISVEEMGERFAGMTWKNILLQVESEASIPLSASLLDKSEKLLDMRLERDVKIIDGVKFALSRLTTPRCICSNSSSHRLDMMLTKVGLKPYFAPHIYSAKDLGADRVKPKPDIFLHGAAQFGVSPDRVVVVEDSVHGIHGARAAGMRVIGFTGASHTYPSHADRLTDAGAETVISRMQDLPAVIAAMAEWEGAF” as the sequence, how does the protein production read?
**A.** Its protein production is “not failed”.

**Q.** With “MSGLRAGHMPKGRLSGRPSFYFFSQAKLMSRQLDHGRETLMDIFHRHRLSNEGYAASVLERAMQTAEHRPEALVWKGMAALAHNPKLAFLFFINAAQLLPDRADVQALVGRALLAQGLAVLATRYLTQAWQKLPDDASLRMLLWQARSQSEPPATLRSMILAHLPEINAPKELAQVIKLLAAQADAPRRIGVVRYLETHREIQGWAIDLGNLQAPASLKIEADSVNVDAVASIPHPLLSAAGLCTTHGGLRVSVPNPKAQVHIRFADNTHLVGSPVFAMPSFVPPIEQGTQVEQKHVDVLIPVYNGLHETLECINSALEARKLNRTPHRLVVIEDATPVPALAKALKMLAGKGKITLVNNAVNMGFIRTMNRAMALSPGRDVVWLNADTRVQGNWLDRLRNIAHSSADIASVTPFTNNGELMSFPQSQVSHAMPNAREQAALDELAKHANISPVEIETGCGFCLYIKRAALNQVGYLDEVYLARGYGEETDWCLRARSFGWRHMGAPNVFVAHQGGISFGAEKTLRVAHNNAILRRRYPGASARYSAFCLRDPIKAARDALQRARLARFAQQSDEQKASQWPMEAGNTLHIHDGTGADSTLSLVWHRDSHRTWVTLKAPLAPLPLELDYEMPGEFSELVQNLATLPLKGVVLEHQVQCPSKLCDLPSLLNIPYTIVHRDGHLQGLDATYDWQRLANRAESVVLPWQSWHSAFAEAFPQANLVIQPCAELPTPATSQPNILLIGDALDDTDIIQTWVRLGRRITRERLPLTLLVKQDTPWLKTLSATGAVQALPQVTGFSLPEIAKATGCDAVVSLAASPGEKWLAPELASQLDLPLYTRCHSLGTEAGATCVTQLPFSLSQA” as the sequence, how does the protein production read?
**A.** Its protein production is “failed”.

**Q.** With “MSGPGSDPVFAALTRPQMVAGVTYSYAVFNLIVTMEAFLISKSFWALLIAPLVHAVGYLGCLNEPRFFDLWITKVSRCPNIRNRGFWQANSYRP” as the sequence, how does the protein production read?
**A.** The protein production was “failed”.

**Q.** For “MSGQHRTRVGGVILAAGRSSRYESGNKLLATIDGKAVVRQVTETACKSSLSDAVAVLGHEKVAVAAALDGLSLSVQHNDEYATGQSASVRHGVEFARSAGWDAALFLLGDMPFVRVETIEELLEAYRTGTATVVVPEHEGRRGNPVLFDNCHFDSLASVSGDRGGRDIIETTEKTAFIEVSDPGVHWDIDTDADLAEFTDRRDSLLEHHHHHH”, which protein production is on record?
**A.** The protein production was “not failed”.

**Q.** With “MSGSLEIPGLDDGLLPVETGYGLFQGTAKKRVVICNDNDKFRHSGPLPRALCGSFAAIGLLPLPVVETRPAPPPKVAPITPALQGKACGQAVFEGLRNKNAVETVDNLPALRQTARTGKRWKALESLMQETPAIIYKIVPETLWTAARAEGMFEGAAIDLTDGFIHFSTAKQVAETAARHFSGQVDLLLIAVDGAALGDKLVYEPSRGGDLFPHLYAPLPFSAVLWETPLSLDHDGQHQFPEILLEHHHHHH” as the sequence, how does the protein production read?
**A.** Its protein production is “failed”.

**Q.** Which protein production does the source give for “MSGTLLAFDFGTKSIGVAVGQRITGTARPLPAIKAQDGTPDWNIIERLLKEWQPDEIIVGLPLNMDGTEQPLTARARKFANRIHGRFGVEVKLHDERLSTVEARSGLFEQGGYRALNKGKVDSASAVIILESYFEQGY” here?
**A.** The protein production was “not failed”.

**Q.** For “MSGVRFPSGSLKDVRFFLHLFFSSKYGIIYVRYLDEEGTIMKQIIISVGREFGSGGHIVAQKLAEHYDIPIFNKELLEEMARKEGYSEKALEKYDEKPVNFGFMPLPYAGGNIPIEQEIAMKQFEFIKNKADAGESFVIVGRCADEILAYNPNLVSVFITGDRESKIARVMDREGLDRKQAINKMKRMDKIRKTYHNFYCRNKWGDSRGYDICINTGKTDFDTAKNMVVECVDKLKERSE”, which protein production is on record?
**A.** Its protein production is “failed”.

**Q.** Which protein production does the source give for “MSGWYELSKSSNDQFKFVLKAGNGEVILTSELYTGKSGAMNGIESVQTNSPIEARYAKEVAKNDKPYFNLKAANHQIIGTSQMYSSTAARDNGIKSVMENGKTTTIKDLTLEHHHHHH” here?
**A.** The protein production was “not failed”.

**Q.** For “MSHAIQIREAHFPGRAPIDAYGNGGFRFADMSHRGSIICIPSGIYGIDMTGPVPTQEDISRVLEESDQIEVLLIGTGVELLRLPEELRVLLWEKRISSDTMSTGAAVRTFNVLLAEDRAVAALLFAVE”, which protein production is on record?
**A.** The protein production was “not failed”.

**Q.** For “MSHCSCHDKPQHSLLPAAYRILSITRHTPLEWNFRVAVDFPAHWGQFVEVSLPRVGEAPISVSDYGDGWIDLLIRNLGKVTSALFTLKEGDNVWLRGCYGNGYPVDTLRHKPLLVVAGGTGVAPVKGLMRYFVENPQEIGQLDMILGYKNRDCVLYKEEMATWRGKHNLVLTLDEGEADDRYQIGRVTDRLADMTLSDIDTMQAIVVGPPIMITFTVKMLLQKGLKPEQIWVDYERRMACSVGKCGHCRMGEVYVCTDGPIFNYAVAQRFAD”, which protein production is on record?
**A.** Its protein production is “failed”.

**Q.** For “MSHHNPLVSVVIPSKNRPDLVIATLVSVIDQTYDNIEIIVVDDGSDMPLAPLLKDRFSDRVLCLRNDQSLGGAVARNRGAQSAHGDYITFLDDDDLWLPKKLEMQVDAFSKHGVDIGVVYCGFDFLCKEEIVPRQNKFHNDYDLSIAVLSGCPFGSPTPLIRKHYFDMVGGFDRELPSCQDWDLWIRLSKVCGFYPVKESLALYRVHGDQISTNLRKKIDGRKMVLAKHYDEIKNYPRVLSAHYSRIGSLCVLADEHVEARDFFSKALASNMFDGGSFVHLVLQFLCRPLEKWLIERFSVNTIDGIKVIHLEHHHHHH”, which protein production is on record?
**A.** The protein production was “failed”.
